Values of other authors as cited in patent US20230332104A1, “ZBTB32 INHIBITORS AND USES THEREOF” (NOVARTIS AG, priority 2020, published 2023).

Tested on: rodent and cynomolgus monkey TGF-β

B1: XOMA 089: fully human monoclonal antibody that specifically binds and neutralizes TGF-beta 1 and 2 ligands (antibody, V domains shown)
VH: QVQLVQSGAEVKKPGSSVKVSCKASGGTFSSYAISWVRQAPGQGLEWMGGIIPIFGTANYAQKFQGRVTITADESTSTAYMELSSLRSEDTAVYYCARGLWEVRALPSVYWGQGTLVTVSS
VL: SYELTQPPSVSVAPGQTARITCGANDIGSKSVHWYQQKAGQAPVLVVSEDIIRPSGIPERISGSNSGNTATLTISRVEAGDEADYYCQVWDRDSDQYVFGTGTKVTVLG
- cross-reactivity with rodent and cynomolgus monkey TGF-β: cross-reacts
